This is an account of results in the RNAGym collection of RNA variant scans (doi:10.1093/nar/gkz1192).

B1: CPEB3 Ribozyme (parent)
chain: UAACAGGGGGCCACAGCAGAAGCGUUCACGUCGCAGCCCCUGUCAGAUUCUGGUGAAUCUGCGAAUUCUGCUGUAUAUCUC

In the data set the parent is B1. Nature of the data set: self-cleavage, relative activity (ratio to wild type); higher = more cleavage; in vitro, sequencing. An outline of the steps: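 Libraries of CPEB3 self-cleaving ribozyme mutants came from rounds of error-prone PCR and carried barcodes, which DNA sequencing matched to variants. In vitro transcription used T7 RNA polymerase at 37°C for 5 hours, with a further 15 min in DNase I before EDTA stopped the reaction; the ribozymes cleaved during both steps. The RNA was reverse transcribed with template switching and sequenced on Illumina. Relative activity is the cleaved/total read fraction of a variant divided by that of the unmutated ribozyme, averaged over three batches with at least 5 reads.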
With UAACAGGGGGCCACAGCAGAAGCGUUCCCGUCGCCGCCCCUGUCAGAUUCUGGUGAAUCUGCGAAUUCUGCUGUAUAUCUC [A28C A35C], the self-cleavage stood at 0.4. In the case of UAACAGGGGGCCACAGCAGAAGCGUUCCCGUCGCGGCCCCUGUCAGAUUCUGGUGAAUCUGCGAAUUCUGCUGUAUAUCUC [A28C A35G] it was 0.98. With UAACAGGGGGCCACAGCAGAAGCGUUUACGUCGCAGCCCCUGUCAGAUUCUGGUGAACCUGCGAAUUCUGCUGUAUAUCUC [C27U U58C] the figure was 0.15; with UAACAGGGGGCCACAGCAGAAGCGUUCCCGUCGCAGCCCCUGUCAGAUCCUGGUGAAUCUGCGAAUUCUGCUGUAUAUCUC [A28C U49C], 0.21; with UAACAGGGGGCCACAGCAGAAGCGUUCCCGUCGCAGCCCCUGUCAGAUACUGGUGAAUCUGCGAAUUCUGCUGUAUAUCUC [A28C U49A], 0.26. In the case of UAACAGGGGGCCACAGCAGAAGCGUUCCCGGCGCAGCCCCUGUCAGAUUCUGGUGAAUCUGCGAAUUCUGCUGUAUAUCUC [A28C U31G] it was 0.38; in that of UAACAGGGGGCCACAGCAGAAGCGUUCCCGCCGCAGCCCCUGUCAGAUUCUGGUGAAUCUGCGAAUUCUGCUGUAUAUCUC [A28C U31C], 0.35; in that of UAACAGGGGGCCACAGCAGAAGCGUUCCCGACGCAGCCCCUGUCAGAUUCUGGUGAAUCUGCGAAUUCUGCUGUAUAUCUC [A28C U31A], 0.55.

Turning to UAACAGGGGGCCACAGCAGAAGCGUUCCCGUCGCAGCCCCUGUCAGAUUCUGGUGAAUCUGCGAAUUCUGCUGUAUUUCUC [A28C A77U], the self-cleavage is 0.22. In the case of UAACAGGGGGCCACAGCAGAAGCGUUCCCGUCGCAGCCCCUGUCAGAUUCUGGUGAAUCUGCGAAUUCUGCUGUAUGUCUC [A28C A77G] it was 0.51; in that of UAACAGGGGGCCACAGCAGAAGCGUUCCCGUCGCAGCCCCUGUCAGAUUCCGGUGAAUCUGCGAAUUCUGCUGUAUAUCUC [A28C U51C], 0.51. UAACAGGGGGCCACAGCAGAAGCGUUCCCGUCGCAGCCCCUGUCAGAUUCAGGUGAAUCUGCGAAUUCUGCUGUAUAUCUC [A28C U51A]: the self-cleavage is 0.53. In the case of UAACAGGGGGCCACAGCAGAAGCGUUCCCGUCGCAGCCCCUGUCAGAUUCGGGUGAAUCUGCGAAUUCUGCUGUAUAUCUC [A28C U51G] it was 0.38. In the case of UAACAGGGGGCCACAGCAGAAGCGUUCCCGUCGCAGCCCCUGUCAGAUUCUUGUGAAUCUGCGAAUUCUGCUGUAUAUCUC [A28C G52U], the self-cleavage came to 0.64.

For the variant UAACAGGGGGCCACAGCAGAAGCGUUCCCGUCGCAGCCCCUGUCAGAUUCUGGUGAGUCUGCGAAUUCUGCUGUAUAUCUC [A28C A57G], the self-cleavage came out at 0.45.

As to UAACAGGGGGCCACAGCAGAAGCGUUCCCGUCGCAGCCCCUGUCAGCUUCUGGUGAAUCUGCGAAUUCUGCUGUAUAUCUC [A28C A47C], the self-cleavage was found to be 0.18.

With UAACAGGGGGCCACAGCAGAAGCGUUCCCGUCGCAGCCCCUGUCAGAUUCUGGUGAAUCUGCGAAUUCUACUGUAUAUCUC [A28C G70A], the self-cleavage worked out at 0.27. In the case of UAACAGGGGGCCACAGCAGAAGCGUUCCCGUCGCAGCCCCUGUCAGAUUCUGGUGAAUCUGCGAAUUCUUCUGUAUAUCUC [A28C G70U] it was 0.11; in that of UAACAGGGGGCCACAGCAGAAGCGUUCCCGUAGCAGCCCCUGUCAGAUUCUGGUGAAUCUGCGAAUUCUGCUGUAUAUCUC [A28C C32A], 0.24. With UAACAGGGGGCCACAGCAGAAGCGUUUACGUCGCAGCCCCUGUCAGAUUCUGGUGAAUCUGCGAAUUCUGCUGAAUAUCUC [C27U U74A] the figure was 0.5; with UAACAGGGGGCCACAGCAGAAGCGUUUACGUCGCAGCCCCUGUCAGAUUCUGGUGAAUCUGCGAAUUCUGCUGCAUAUCUC [C27U U74C], 0.36. With UAACAGGGGGCCACAGCAGAAGCGUUCCCGUCGCAGCCCCUGUCAGAUUCUGGUGAAUCUACGAAUUCUGCUGUAUAUCUC [A28C G61A] the figure was 0.48; with UAACAGGGGGCCACAGCAGAAGCGUUCCCGUCGCAGCCCCUGUCAGAUUCUGGUGAAUCUCCGAAUUCUGCUGUAUAUCUC [A28C G61C], 0.19. As to UAACAGGGGGCCACAGCAGAAGCGUUCCCGUCGCAGCCCCUGUCAGAUUCUGGUGAAUCUUCGAAUUCUGCUGUAUAUCUC [A28C G61U], the self-cleavage worked out at 0.2. In the case of UAACAGGGGGCCACAGCAGAAGCGUUCCCGUCGCAGCCCCUGUCAGAUUCUGGUGAAUCUGCGAAUUCUGCUGUGUAUCUC [A28C A75G] it was 0.49; in that of UAACAGGGGGCCACAGCAGAAGCGUUCCCGUCGCAGCUCCUGUCAGAUUCUGGUGAAUCUGCGAAUUCUGCUGUAUAUCUC [A28C C38U], 0.41; in that of UAACAGGGGGCCACAGCAGAAGCGUUCCCGUCGCAGCGCCUGUCAGAUUCUGGUGAAUCUGCGAAUUCUGCUGUAUAUCUC [A28C C38G], 0.19. In the case of UAACAGGGGGCCACAGCAGAAGCGUUUACGUCGCAGCCCCUGUCAGAUUCUGGUGAAUCUGCGAAUUCUGCUGUAUAUCCC [C27U U80C], the self-cleavage turned out to be 0.58. With UAACAGGGGGCCACAGCAGAAGCGUUUACGUCGCAGCCCCUGUCAGAUUCUGGUGAAUCUGCGAAUUCUGCUGUAUAUCAC [C27U U80A] the figure was 0.29.

For the variant UAACAGGGGGCCACAGCAGAAGCGUUUACGUCGCAGCCCCUGUCAGAUUCUGGCGAAUCUGCGAAUUCUGCUGUAUAUCUC [C27U U54C], the self-cleavage came out at 0.35. With UAACAGGGGGCCACAGCAGAAGCGUUUACGUCGCAGCCCCUGUCAGAUUCUGGAGAAUCUGCGAAUUCUGCUGUAUAUCUC [C27U U54A] the figure was 0.34; with UAACAGGGGGCCACAGCAGAAGCGUUUACGUCGCAGCCCCUGUCAGAUUCUGGUGAAUCCGCGAAUUCUGCUGUAUAUCUC [C27U U60C], 0.14; with UAACAGGGGGCCACAGCAGAAGCGUUCCCGUCGCAGCCCCUGUCAGAUUCUGGUGAAUCUGCGAAUUCUGGUGUAUAUCUC [A28C C71G], 0.08. With UAACAGGGGGCCACAGCAGAAGCGUUCCCGUCGCAGCCCCUGUCAGAUUCUGGUGAAUCUGCGAAUUCUGUUGUAUAUCUC [A28C C71U] the figure was 0.41.
